Patent US20250188166A1 (BRIGHT PEAK THERAPEUTICS, published 2025)
Positions count from the first letter of the chain named. In names and notes the source's numbering stands. Several values for one entry are separate records, joined by “and”; a condition that tells them apart may be missing. Equal values may be shown once.

T1: IL-18R on HEK-Blue IL18R reporter cells (UniProt Q13478 19-541; O95256 20-599)
T1 sequence (looked up) 1: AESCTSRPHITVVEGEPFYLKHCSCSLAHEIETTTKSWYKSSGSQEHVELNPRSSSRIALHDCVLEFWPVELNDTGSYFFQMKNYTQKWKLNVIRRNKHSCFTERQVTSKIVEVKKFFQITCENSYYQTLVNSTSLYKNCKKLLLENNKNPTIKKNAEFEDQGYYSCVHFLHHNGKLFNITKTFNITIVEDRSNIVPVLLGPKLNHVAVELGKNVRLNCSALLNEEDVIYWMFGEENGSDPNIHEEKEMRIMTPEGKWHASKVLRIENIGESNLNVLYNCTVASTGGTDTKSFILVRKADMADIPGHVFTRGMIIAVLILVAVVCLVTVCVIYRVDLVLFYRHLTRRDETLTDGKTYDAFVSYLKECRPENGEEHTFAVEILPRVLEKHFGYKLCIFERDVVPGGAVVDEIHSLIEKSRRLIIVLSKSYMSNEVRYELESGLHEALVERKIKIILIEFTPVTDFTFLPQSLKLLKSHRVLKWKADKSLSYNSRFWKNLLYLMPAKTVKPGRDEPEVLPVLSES
T1 sequence (looked up) 2: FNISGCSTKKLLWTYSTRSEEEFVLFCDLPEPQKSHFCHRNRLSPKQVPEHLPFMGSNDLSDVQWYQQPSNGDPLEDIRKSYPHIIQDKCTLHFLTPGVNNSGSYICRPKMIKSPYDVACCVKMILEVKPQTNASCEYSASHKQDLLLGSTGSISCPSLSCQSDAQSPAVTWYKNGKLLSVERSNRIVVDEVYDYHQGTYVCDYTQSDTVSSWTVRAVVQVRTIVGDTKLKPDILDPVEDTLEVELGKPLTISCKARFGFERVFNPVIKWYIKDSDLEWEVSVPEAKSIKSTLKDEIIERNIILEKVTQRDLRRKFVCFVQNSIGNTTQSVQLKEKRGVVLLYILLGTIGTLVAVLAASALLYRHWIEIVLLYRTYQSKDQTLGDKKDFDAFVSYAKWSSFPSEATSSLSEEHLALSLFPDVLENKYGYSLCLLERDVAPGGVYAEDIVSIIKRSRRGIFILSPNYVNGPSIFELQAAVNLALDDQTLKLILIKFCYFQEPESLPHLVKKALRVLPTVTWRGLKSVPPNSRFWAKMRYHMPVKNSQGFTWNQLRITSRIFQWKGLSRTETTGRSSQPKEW

B1: IL-18 polypeptide C142 (ligand)
chain: MFGKLKSKLSIIRNLNDQVLFIDQGNRPLFEDMTDSDARDNAPRTIFIISMYADSQPRGMAVAISVKCEKISTLSAENKIISFKEMNPPDNIKDTKSDIIFFQRSVPGHDNKMQFESSSYEGYFLAAEKERDLFKLILKKEDELGDRSIMFTVQNED
B2: IL-18 polypeptide SEQ ID NO: 59 (E6K, C38A, K53A) (ligand)
chain: B1 chain with M1Y, I11V, A63T, A76C, A127C
B3: IL-18 polypeptide SEQ ID NO: 34 (E06K, K53A, S55A) (ligand)
chain: B1 chain with M1Y, I11V, A38C, S55A, A63T, A76C, A127C
B4: IL-18 polypeptide C162 (ligand)
chain: B1 chain with M1Y, K6E, K8E, A53K, A63T, Q103R
B5: IL-18 polypeptide C158 (ligand)
chain: B1 chain with M1Y, K6E, A63T, G108A
B6: IL-18 polypeptide C147 (ligand)
chain: B1 chain with M1Y, K6E, D54A, A63T
B7: IL-18 polypeptide C163 (ligand)
chain: B1 chain with M1Y, K6E, A53K, A63T, Q103K
B8: IL-18 polypeptide C160 (ligand)
chain: B1 chain with M1Y, K6E, A63T, D110A
B9: IL-18 polypeptide C167 (ligand)
chain: B1 chain with M1Y, K6E, A53K, A63T, S105I
B10: IL-18 polypeptide SEQ ID NO: 42 (E06K, K53A, S55A, T63A) (ligand)
chain: B1 chain with M1Y, I11V, A38C, S55A, A76C, A127C
B11: IL-18 polypeptide C151 (ligand)
chain: B1 chain with M1Y, K6E, D35A, A63T
B12: IL-18 polypeptide C178 (ligand)
chain: B1 chain with M1Y, Q103R
B13: IL-18 polypeptide C168 (ligand)
chain: B1 chain with M1Y, K6E, A53K, A63T, S105K
B14: IL-18 polypeptide C165 (ligand)
chain: B1 chain with M1Y, K6E, A53K, S55R, A63T
B15: IL-18 polypeptide C182 (ligand)
chain: B1 chain with M1Y, V153Y
B16: IL-18 polypeptide SEQ ID NO: 60 (E6K, C38Q, K53A) (ligand)
chain: B1 chain with M1Y, I11V, A38Q, A63T, A76C, A127C
B17: IL-18 polypeptide C164 (ligand)
chain: B1 chain with M1Y, K6E, A53K, S55H, A63T
B18: IL-18 polypeptide C143 (ligand)
chain: B1 chain with M1Y, K6E, A63T
B19: IL-18 polypeptide C145 (ligand)
chain: B1 chain with M1Y, K6E, S55A, A63T
B20: IL-18 polypeptide C157 (ligand)
chain: B1 chain with M1Y, K6E, A63T, D132A
B21: IL-18 polypeptide C155 (ligand)
chain: B1 chain with M1Y, K6E, D40A, A63T
B22: IL-18 polypeptide C144 (ligand)
chain: B1 chain with M1Y, K6E
B23: IL-18 polypeptide C161 (ligand)
chain: B1 chain with M1Y, K6E, K8R, A53K, A63T, Q103E
B24: IL-18 polypeptide SEQ ID NO: 54 (E06K, K53A, C38S, C68S, C76S, C127S, K70C) (ligand)
chain: B1 chain with M1Y, I11V, A38S, A63T, C68S, K70C, A76S, A127S
B25: IL-18 polypeptide SEQ ID NO: 62 (E6K, C38A, K53A, C127A) (ligand)
chain: B1 chain with M1Y, I11V, A63T, A76C
B26: IL-18 polypeptide SEQ ID NO: 56 (E6K, K53A, C38S, C76S, C127S) (ligand)
chain: B1 chain with M1Y, I11V, A38S, A63T, A76S, A127S
B27: IL-18 polypeptide C159 (ligand)
chain: B1 chain with M1Y, K6E, A63T, H109A
B28: IL-18 polypeptide C174 (ligand)
chain: B1 chain with M1Y, K8L
B29: IL-18 polypeptide C153 (ligand)
chain: B1 chain with M1Y, K6E, D37A, A63T
B30: IL-18 polypeptide SEQ ID NO: 57 (E6K, C38S, K53A) (ligand)
chain: B1 chain with M1Y, I11V, A38S, A63T, A76C, A127C
B31: IL-18 polypeptide C176 (ligand)
chain: B1 chain with M1Y, I49M
B32: IL-18 polypeptide C152 (ligand)
chain: B1 chain with M1Y, K6E, S36A, A63T
B33: IL-18 polypeptide C149 (ligand)
chain: B1 chain with M1Y, K6E, E31A, A63T
B34: IL-18 polypeptide C150 (ligand)
chain: B1 chain with M1Y, K6E, T34A, A63T
B35: IL-18 polypeptide C146 (SEQ ID NO: 68) (ligand)
chain: B1 chain with M1Y, K6E, M51G, A63T
B36: IL-18 polypeptide C183 (SEQ ID NO: 69) (ligand)
chain: B1 chain with M1Y, M51G
B37: IL-18 polypeptide C154 (ligand)
chain: B1 chain with M1Y, K6E, E31A, D37A, A63T
B38: IL-18 polypeptide C148 (ligand)
chain: B1 chain with M1Y, F2A, K6E, A63T
B39: IL-18 polypeptide SEQ ID NO: 50 (E06K, K53A, T63A) (ligand)
chain: B1 chain with M1Y, I11V, A38C, A76C, A127C
B40: IL-18 polypeptide C166 (ligand)
chain: B1 chain with M1Y, K6E, A53K, S55T, A63T
B41: IL-18 polypeptide C184 (ligand)
chain: B1 chain with M1Y, K6R
B42: IL-18 polypeptide C179 (ligand)
chain: B1 chain with M1Y, K8E, Q103R
B43: IL-18 polypeptide C177 (ligand)
chain: B1 chain with M1Y, I49R
B44: IL-18 polypeptide C181 (ligand)
chain: B1 chain with M1Y, V153E
B45: IL-18 polypeptide C156 (ligand)
chain: B1 chain with M1Y, K6E, N41A, A63T
B46: IL-18 polypeptide C140 (SEQ ID NO: 72) (ligand)
chain: GGGGYFGKLKSKLSIIRNLNDQVLFIDQGNRPLFEDMTDSDARDNAPRTIFIISMYADSQPRGMAVAISVKCEKISTLSAENKIISFKEMNPPDNIKDTKSDIIFFQRSVPGHDNKMQFESSSYEGYFLAAEKERDLFKLILKKEDELGDRSIMFTVQNED

biological target: T1, IL-18R on HEK-Blue IL18R reporter cells; assay: cell-based or functional assay

EC50, HEK-Blue IL18R SEAP reporter | Binder
0.02 pM | B1
0.268 pM | B2
272 pM | B3
2.3 pM | B4
15.6 pM | B5
1 pM | B6
1.5 pM | B7
2.02 pM | B8
5.37 pM | B9
0.79 pM | B10
13.1 pM | B11
0.26 pM | B12
7.73 pM | B13
1.91 pM | B14
0.08 pM | B15
0.203 pM | B16
3.14 pM | B17
0.98 pM | B18
3.63 pM | B19
1.95 pM | B20
0.52 pM | B21
0.17 pM | B22
2.01 pM | B23

EC50, HEK-Blue IL18R SEAP reporter | Binder
9.12 pM | B24
0.17 pM | B25
3.73 pM | B26
19.5 pM | B27
0.29 pM | B28
14.1 pM | B29
0.86 pM and 0.53 pM | B30
0.07 pM | B31
0.25 pM | B32
6.6 pM | B33
0.7 pM | B34
0.8 pM | B35
0.1 pM | B36
11.9 pM | B37
7.28 pM | B38
1.77 pM | B39
4.73 pM | B40
0.04 pM | B41
0.4 pM | B42
0.04 pM | B43
0.1 pM | B44
11.7 pM | B45
2.5 pM | B46
